Our source for the Kd values is patent US20230002478A1 (TWIST BIOSCIENCE, published 2023).

Usually Kd stands for the free concentration of one partner at which half of the binding sites on the other are occupied at equilibrium, for simple one-to-one binding. High values mean weaker binding, low ones tighter binding.

In assay [1] the target is T1, SARS-CoV-2 S1 (HV69-70del, Y453F, D614G) (SARS-CoV-2, UniProt P0DTC2 16-685).
T1 construct: domain: S1
The assay is described as follows: SPR. A general note: In SPR one partner is held on a chip, and binding of the other changes the refractive index at the surface.

Assay [2] addresses T2, SARS-CoV-2 S1 (HV69-70del, N501Y, D614G) (SARS-CoV-2, UniProt P0DTC2 16-685).
T2 construct: domain: S1
Nature of the assay: SPR.

B1: 6-63 (Fc fusion)
chain: EVQLVESGGGLVQPGGSLRLSCAASGQTFNMGWFRQAPGKEREFVAAIGSGGSTSYADSVKGRFTISADNSKNTAYLQMNSLKPEDTAVYYCWRLGNDYFDYWGQGTLVTVSS
As to B1, the Kd turned out to be 96 nM in assay [1] and 63 nM in assay [2].

B2: 6-3 (Fc fusion)
chain: EVQLVESGGGLVQPGGSLRLSCAASGFTFSPSWMGWFRQAPGKEREFVATINEYGGRNYADSVKGRFTISADNSKNTAYLQMNSLKPEDTAVYYCARVDRDFDYWGQGTLVTVSS
For B2, the results for the Kd in assay [1] and in assay [2] were 23 nM and 9.3 nM, respectively.
